We go through one protein from US20220024979A1 (NANYANG TECHNOLOGICAL UNIVERSITY, published 2022).

This series concerns the molecule itself. The series is described as follows: solution 2D 1H-1H NOESY NMR, 20 mM peptide. The procedure: NMR: All solution state NMR experiments were carried out on a Bruker 700 MHz spectrometer equipped with a cryoprobe. NMR data were processed with TOPSPIN (Bruker), then analysed using Sparky (W. Lee et al. Bioinfo. 2015, 31, 1325) programs. 0.5 mM or 20 mM GV8 peptides were dissolved in water, pH 6.8 with 10% D₂O for deuterium lock and DSS for signal reference. Two dimensional (2D)¹H-¹H TOCSY and NOESY spectra were acquired with 80 ms and 200 ms mixing times, respectively. In order to monitor hydrogel formation, 1D ¹H spectrum and a series of 2D ¹H-¹H NOESY spectra were recorded every four hours for 20 hours using the 20 mM peptide solution. For H/D exchange experiments, 0.5 mM and 20 mM peptide samples were dissolved in 100% D₂O and 2D ¹H-¹H TOCSY spectra were recorded at 30 min intervals. The extrinsic exchange rates were obtained by fitting the peak intensity vs. time to a single-exponential decay equation. The protection factor were calculated as the ratio of intrinsic exchange rates (calculated from SPHERE (Bai et al. Proteins. 1993, 17, 75)) to the extrinsic exchange rates. […] Amide temperature coefficients were also determined by recording 1D ¹H spectra of 0.5 mM and 20 mM GV8 peptide at 298 K, 303 K, 308 K and 313 K. Amide proton chemical shift deviations were fitted linearly against temperature and the temperature coefficients were calculated as σδHN/ΔT (ppb K⁻¹).

B1: Ac-GLYGGYGV-NH2 (GV8) peptide (peptide)
peptide: Ac-GLYGGYGV-NH2
notes: Synthetic 8-residue peptide, a repeat derived from suckerin-19; It is entered only for its self-association (dimer or oligomer in solution at 20 mM, antiparallel beta-sheets in the hydrogel); For the ssNMR experiments the peptide was uniformly 13C-15N labelled
For the protein B1, the binding result was “binds”.
